Reference: US20220403048A1, “BINDING MOLECULES TO ARGINASE II [ARG2]” (Cancer Research Technology Limited, priority 2019, published 2022)

Columns and labels:
ARG2 = molecular target: T1, ARG2 (Homo sapiens, UniProt P78540); experiment: T cell proliferation assay (BrdU, 96 hours) with exogenous ARG2, improved variant IgGs; type: cell-based; conditions: In Absence of rhARG2, hIgG1
T1 sequence (P78540 23-354): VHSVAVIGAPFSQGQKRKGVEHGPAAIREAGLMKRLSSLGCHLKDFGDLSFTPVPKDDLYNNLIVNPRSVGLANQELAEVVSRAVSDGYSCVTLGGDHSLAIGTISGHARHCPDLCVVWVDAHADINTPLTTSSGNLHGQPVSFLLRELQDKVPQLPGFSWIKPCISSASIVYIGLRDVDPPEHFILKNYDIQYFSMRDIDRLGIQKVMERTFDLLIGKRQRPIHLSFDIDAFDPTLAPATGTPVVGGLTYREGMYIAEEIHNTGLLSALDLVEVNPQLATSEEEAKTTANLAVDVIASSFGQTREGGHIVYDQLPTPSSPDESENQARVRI
Description: This assay served to provide evidence of improved functional efficacy for each affinity-matured antibody in comparison to the parent IgG, C0020187 (FIG. 12).
Lead optimisation clones were tested to an endpoint treatment time of 96 hours and the BrdU Cell Proliferation Kit (Roche, France; Cat: 11647229001) was used according to the manufacturer's instructions. R347 was used as the irrelevant control. All clones tested n=2.
Leukocyte cones underwent Ficoll Plaque (GE, Sweden; Cat: 17-1440-02) gradient separation, PBMC's were extracted and pan T cell population isolated by negative selection using the Human T Cell Enrichment Kit (Stemcell Technologies, France; Cat: 19051) according to the manufacturer's instructions.
40000 cells/well were seeded in complete growth media (RMPI 1640, 5% Human Serum Albumin) into a 96 well clear TC treated microplate (Greiner-Bio One, Germany; Cat: 655180). T cells were activated by the addition of ImmunoCult CD3/CD28 (Stemcell Technologies, France; Cat: 10971) at a dilution of 1:40 directly into wells and the plate incubated 37° C., 5% CO2 for 45 minutes.
To determine EC50's of test antibodies, a dilution series was created in sterile TBS/NaCl Buffer at 10× the final assay concentration added to the assay plate containing cells. Plate was incubated for 30 minutes at 37° C., 5% CO2.
ARG2 was added to relevant wells of the plate at a final concentration of 15 μg/ml. The equivalent volume of ARG2 vehicle and test antibody vehicle was added to relevant control wells. The total volume in each well was 200 μl. Cells were treated with test antibodies for a total of 96 hours at 37° C., 5% CO2. Antibodies were tested alongside C0020187 (parent IgG) as a positive control and R347 (irrelevant isotype control antibody) as a negative control.
Assessment of T cell proliferation was performed using the BrdU Cell Proliferation ELISA Kit (Roche, Germany; Cat: 000000011647229001). BrdU labelling reagent was added after 78 hours of antibody treatment and the plate further incubated for 18 hours at 37° C., 5% CO2. The remainder of the assay was performed according to the manufacturer's instructions.
Calculated data was expressed as % of control (Equation 3) and graphical plots were constructed using a four parameter fit and EC50's determined using model 205 in XLFit (IDBS, UK).
All test sample data was corrected for background (mean of no cell control)
% Control=100*((Test Sample−Mean Positive Control)/(Mean Negative Control−Mean Positive Control)) Equation 3:
Mean Positive Control=T Cells in absence of ARG2
Mean Negative Control=T Cells in presence of ARG2
This assay served to provide evidence of improved functional efficacy for each affinity-matured antibody in comparison to the parent IgG, C0020187 (FIG. 14, Table 19). R347 was used as the irrelevant control. All clones tested n=2. Reference section 2.9 for methodology.

human ARG1 = molecular target: T2, human ARG1 (Homo sapiens, UniProt P05089); experiment: Bio-Layer Interferometry (OctetRED) binding, human ARG1; conditions: Fab analyte up to 120 nM, screening assay on anti-His surface
T2 construct: Avi tag (N); His10 (after a GGG linker) (C); made in house; host or cells: E. coli BL21 (DE3)
T2 sequence (P05089 with tags, fused parts or gaps): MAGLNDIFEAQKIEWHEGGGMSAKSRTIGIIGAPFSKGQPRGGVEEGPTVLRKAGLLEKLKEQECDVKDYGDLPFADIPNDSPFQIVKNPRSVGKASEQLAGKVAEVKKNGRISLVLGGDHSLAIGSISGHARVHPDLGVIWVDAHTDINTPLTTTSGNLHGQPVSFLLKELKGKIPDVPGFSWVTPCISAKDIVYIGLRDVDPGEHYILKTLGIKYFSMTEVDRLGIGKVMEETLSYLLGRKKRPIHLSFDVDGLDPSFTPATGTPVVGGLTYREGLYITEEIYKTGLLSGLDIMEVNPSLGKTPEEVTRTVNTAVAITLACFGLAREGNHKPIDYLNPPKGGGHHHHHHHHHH
Description: The affinity of binding between the Fab of C0020187 and human ARG2, cynomolgus ARG2 and human ARG1 was estimated using assays in which the biotinylated ARG antigen was captured on a streptavidin sensor tip. A fresh sensor tip was used for each measurement and no regeneration was used. A series of dilutions of the C0020187 Fab (3.25-240 nM) were individually placed in contact with the ligand surface for a sufficient amount of time to observe sensorgrams that could be fitted to an appropriate binding model with confidence (typically 5 minutes), followed by an appropriate length of dissociation time (typically 10 minutes). Blank reference (0 nM Fab) data were subtracted from each dataset to reduce the impact of any buffer artefacts or non-specific binding effects. An appropriate binding model was then fitted simultaneously to the data from each analyte titration using the Octet Evaluation software.
(§1) The binding of affinity-matured antibodies to human ARG1 was also tested on the OctetRED system using a screening assay which stably captures […] as the ligand on an anti-His surface. The Fabs were typically tested in an analyte range of 1.8 to 120 nM, with an association time of 5 minutes and a dissociation time of 10 minutes. Sensors were regenerated using 10 mM glycine pH 1.5 after each cycle.
as §1, with “Binding” for “The binding”, “the second-generation” for “affinity-matured”, “ARG” for “ARG1”, “were” for “were typically”, “as” for “in an”, “up” for “range of 1.8”

Molecule	EC50 (ARG2; 96 hours) [nM]	Maximum % Proliferation (ARG2; 96 hours) [%]	EC50 (ARG2; top conc 2 μM, n=2) [nM]	Maximum % Proliferation (ARG2; top conc 2 μM, n=2) [%]	Results, binding to human ARG1 (BLI) (human ARG1)
C0021061: anti-ARG2 antibody, first generation lead, VH SEQ ID NO: 62, VL SEQ ID NO: 67 (antibody, listed as Homo sapiens, V domains shown, C0021061) VH: EVQLLESGGGLVQPGGSLRLSCAASGFTFSSYAMSWVRQAPGKGLEWVSAKPTDAGSTYYADSVKGRFTISRDNSKNTLYLQMNSLRAEDTAVYYCARLRADLGLYMDLWGRGTLVTVSS VL: QSVLTQPPSVSAAPGQKVTISCSGSSSNIGNHYVSWYQQLPGTAPKLLIYNTVYPKSGIPDRFSGSKSGTSATLGITGLQTGDEADYYCGTWDSSLSALVFGGGTKLTVL	< 0.9	99	< 0.9	93	No binding observed
C0021092: anti-ARG2 antibody, VH SEQ ID NO: 92, VL SEQ ID NO: 97 (antibody, listed as Homo sapiens, V domains shown, C0021092) VH: EVQLLESGGGLVQPGGSLRLSCAASGFTFSRYAMSWVRQAPGKGLEWVSAHTHSPGSTYYADSVKGRFTISRDNSKNTLYLQMNSLRAEDTAVYYCARLRADLGLYMDLWGRGTLVTVSS VL: QSVLTQPPSVSAAPGQKVTISCSGSSSNIGNHYVSWYQQLPGTAPKLLIYNSVARPSGIPDRFSGSKSGTSATLGITGLQTGDEADYYCGTWDSSLSALVFGGGTKLTVL	< 0.9	92			No binding observed
C0021065: anti-ARG2 antibody, VH SEQ ID NO: 72, VL SEQ ID NO: 77 (antibody, listed as Homo sapiens, V domains shown, C0021065) VH: EVQLLESGGGLVQPGGSLRLSCAASGFTFSSYAMSWVRQAPGKGPEWVSAISGFSPYYADSVKGRFTISRDNSRNTLYLQMNSLRAEDTAVYYCARLRADLGLYMDLWGRGTLVTVSS VL: QSVLTQPPSVSAAPGQKVTISCSGSSSNIGNHYVSWYQQLPGTAPKLLIYDTDHMASGIPDRFSGSKSGTSATLGITGLQTGDEADYYCGTWDSSLSALVFGGGTKLTVL	< 0.9	101			No binding observed
C0021158 IgG: anti-ARG2 antibody, VH SEQ ID NO: 282, VL SEQ ID NO: 287; IgG and Fab versions carry these sequences (antibody, listed as Homo sapiens, V domains shown, C0021158 IgG) VH: EVQLLESGGGLVQPGGSLRLSCAASGFTFRYEVAAWVRQAPGKGLEWVSAISGPIPKGYYADSVKGRFTISRDNSKNTLYLQMNSLRAEDTAVYYCARLRADLGLYMDLWGRGTLVTVSS VL: QSVLTQPPSVSAAPGQKVTISCSGSSSNIGNHYVSWYQQLPGTAPKLLIYDNSERTAGVPDRFSGSKSGTSATLGITGLQTGDEADYYCGTWDELTSNLVFGGGTKLTVL					No binding observed
C0021022: anti-ARG2 antibody, VH SEQ ID NO: 42, VL SEQ ID NO: 47 (antibody, listed as Homo sapiens, V domains shown, C0021022) VH: EVQLLESGGGLVQPGGSLRLSCAASGFTFSSYAMSWVRQAPGKGPEWVSAISGFSPYYADSVKGRFTISRDNSKNTLYLQMNSLRAEDTAVYYCARLRADLGLYMDLWGRGTLVTVSS VL: QSVLTQPPSVSAAPGQKVTISCSGSSSNIGNHYVSWYQQLPGTAPKLLIYDNSERPSGIPDRFSGSKSGTSATLGITGLQTGDEADYYCGTWDSSLSALVFGGGTKLTVL	< 1				No binding observed
C0021133: anti-ARG2 antibody, VH SEQ ID NO: 192, VL SEQ ID NO: 197 (antibody, listed as Homo sapiens, V domains shown, C0021133) VH: EVQLLESGGGLVQPGGSLRLSCAASGFTFRYDHHVWVRQAPGKGLEWVSAISGSGGSTYYADSVKGRFTISRDNSKNTLYLQMNSLRAEDTAVYYCARLRADLGLYMDLWGRGTLVTVSS VL: QSVLTQPPSVSAAPGQKVTVSCSGSSSNIGNHYVSWYQQLPGTAPKLLIYDTTVLSSGIPDRFSGSKSGTSATLGITGLQTGDEADYYCGTWDELTSNLVFGGGTKLTVL	< 0.7	90			No binding observed
C0021181: anti-ARG2 antibody, VH SEQ ID NO: 342, VL SEQ ID NO: 347 (antibody, listed as Homo sapiens, V domains shown, C0021181) VH: EVQLLESGGGLVRPGGSLRLSCAASEFTFRYDYHVWVRQAPGKGLEWVSAISGSGGSTYYADSVKSRFTISRDNSKNTLYLQMNSLRAEDTAVYYCARLRADLGLYMDLWGRGTLVTVSS VL: QSVLTQPPSVSAAPGQKVAVSCSGSSSNIGSHYVSWYQQLPGTAPKLLIYDNSERTSGIPDRFSGSKSGTSATLGITGLQTGDEADYYCGTWDELTSNLVFGGGTRLTVL					No binding observed
C0021139: anti-ARG2 antibody, VH SEQ ID NO: 212, VL SEQ ID NO: 217 (antibody, listed as Homo sapiens, V domains shown, C0021139) VH: EVQLLESGGGLVQPGGSLRLSCAASGFTFQYDYQVWVRQAPGKGLEWVSAISGSGGSTYYADSVKGRFTISRDNSKNTLYLQMNSLRAEDTAVYYCARLRADLGLYMDLWGRGTLVTVSS VL: QSVLTQPPSVSAAPGQKVTISCSGSSSNIGNHYVSWYQQLPGTAPKLLIYDNSERTSGIPDRFSGSKSGTSATLGITGLQTGDEADYYCGTWDELTSNLVFGGGTKLTVL	< 1	84			No binding observed
C0021158: anti-ARG2 antibody, second generation lead, VH SEQ ID NO: 272, VL SEQ ID NO: 277 (antibody, listed as Homo sapiens, V domains shown, C0021158) VH: EVQLLESGGGLVQPGGSLRLSCAASGFTFRYEVAAWVRQAPGKGLEWVSAISGPIPKGYYADSVKGRFTISRDNSKNTLYLQMNSLRAEDTAVYYCARLRADLGLYMDLWGRGTLVTVPS VL: QSVLTQPPSVSAAPGQKVTISCSGSSSNIGNHYVSWYQQLPGTAPKLLIYDNSERTAGVPDRFSGSKSGTSATLGITGLQTGDEADYYCGTWDELTSNLVFGGGTKLTVL			< 0.9	94	
